This is an account of results in publication PMC10889554, “An Unusual Two-Domain Thyropin from Tick Saliva: NMR Solution Structure and Highly Selective Inhibition of Cysteine Cathepsins Modulated by Glycosaminoglycans” (International Journal of Molecular Sciences, 2024).

One may read the Ki as the dissociation constant of the complex between target and ligand, obtained from inhibition or displacement. A lower Ki goes with tighter binding.

Common to all, as to assay: enzyme inhibition kinetics (fluorogenic peptide substrate activity assay); inhibitor preincubated with protease 15 min, 37 °C; IC50 from residual velocities, Ki by the Cheng-Prusoff equation; 50 mM sodium acetate pH 5.5, 0.1% polyethylene glycol 1500, 2.5 mM dithiothreitol (cathepsins L, K, V, B, F, C and papain; 50 mM NaCl for cathepsin C)
Common to all, as to conditions: both partners purified

The target of one experiment is T1, human cathepsin V (human, UniProt O60911 114-334).
T1 construct: source: Pichia pastoris expression system, as described previously [12,56,57]
T1 sequence (O60911 114-334): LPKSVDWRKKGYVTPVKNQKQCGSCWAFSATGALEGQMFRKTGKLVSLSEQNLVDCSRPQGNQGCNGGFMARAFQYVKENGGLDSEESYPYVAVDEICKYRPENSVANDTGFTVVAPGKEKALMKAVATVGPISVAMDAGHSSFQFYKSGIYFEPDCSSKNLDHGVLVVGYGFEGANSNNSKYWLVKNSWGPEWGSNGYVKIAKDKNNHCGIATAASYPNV

Another experiment addresses T2, human cathepsin L (human).
T2 construct: source: Pichia pastoris expression system, as described previously [12,56,57]

The next experiment concerns the target T3, human cathepsin K (human, UniProt P43235 115-329).
T3 construct: source: Pichia pastoris expression system, as described previously [12,56,57]
T3 sequence (looked up): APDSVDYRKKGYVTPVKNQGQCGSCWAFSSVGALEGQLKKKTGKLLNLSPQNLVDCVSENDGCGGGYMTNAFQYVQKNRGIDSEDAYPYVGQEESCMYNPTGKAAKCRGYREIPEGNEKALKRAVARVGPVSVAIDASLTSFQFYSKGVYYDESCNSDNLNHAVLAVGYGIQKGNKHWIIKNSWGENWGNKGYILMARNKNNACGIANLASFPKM

In the next experiment the target is T4, Carica papaya papain (Carica papaya, UniProt P00784 134-345).
T4 construct: source: bought: Merck
T4 sequence (looked up): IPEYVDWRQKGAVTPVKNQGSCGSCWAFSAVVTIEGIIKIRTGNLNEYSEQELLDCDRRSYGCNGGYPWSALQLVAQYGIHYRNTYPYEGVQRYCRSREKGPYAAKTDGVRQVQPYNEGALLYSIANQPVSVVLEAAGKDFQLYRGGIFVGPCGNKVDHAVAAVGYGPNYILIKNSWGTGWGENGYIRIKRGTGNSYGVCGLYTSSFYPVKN

In a further experiment the target is T5, human cathepsin F (human, UniProt Q9UBX1 271-484).
T5 construct: source: bought: Enzo Life Sciences
T5 sequence (looked up): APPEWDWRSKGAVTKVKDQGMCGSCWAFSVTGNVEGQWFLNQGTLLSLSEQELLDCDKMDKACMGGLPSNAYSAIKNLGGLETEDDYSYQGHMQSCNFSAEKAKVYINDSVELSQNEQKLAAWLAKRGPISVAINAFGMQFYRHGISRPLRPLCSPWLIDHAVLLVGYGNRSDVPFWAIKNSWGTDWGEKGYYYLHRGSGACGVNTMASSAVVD

B1: IrThy-Nd, recombinant N-terminal Tg1 domain of IrThy (domain or fragment)
chain: SNAASVPTRVANHGASRPLSDCEQRKQREERNTGPLAIHIECNPDGSYKPMQCFGNPDQPRRMCACYDQEYDQIKAPSRQLKSCK
For B1, the inhibition constant Ki with human cathepsin V came out at 27.2 nM; in the experiment with human cathepsin L, 179 nM; in the experiment with human cathepsin K, 43.7 nM; with Carica papaya papain it was 153 nM; with human cathepsin F, 207 nM.
